Data reported in patent publication US20200131227A1, “POLYPEPTIDE WITH TUMOUR BINDING ACTIVITY” (RUPRECHT-KARLS-UNIVERSITÄT HEIDELBERG, priority 2017, published 2020).
Where a SMILES comes first, the peptide text is derived from it. Bridges are numbered along the chain shown (N, C = ends). The star is where a group is joined. DOTA = O=C(O)CN1CCN(CC(=O)O)CCN(CC(=O)*)CCN(CC(=O)O)CC1

Tests used:
[1] = Small-animal PET imaging, HNO97 xenografts; conditions: Balb/c nude, mouse, in vivo, iv, total radioactivity
Method: All experiments were conducted in compliance with the German animal protection laws. Eight week old Balb c/c nude mice (Charles River Laboratories) were inoculated subcutaneously at the right shoulder with 5×10^6 HNO97 cells in BD MatriGel™ (BD Bioscience). Xenografts were grown to a tumor diameter of 10-15 mm. For small animal-PET imaging mice were anesthetized using isoflurane inhalation and injected via tail-vein with 50 MBq (2 nmol) of the ^68Ga-labeled DOTA-SFITGv6 peptide (see above) solution in 100 μL PBS. Images were recorded on an Inveon small-animal PET scanner (Siemens) using a 60 min emission scan in list mode and a 10 min transmission scan. Images were taken in 3-dimensional (3D) mode and reconstructed iteratively with a fully 3D algorithm from a 256×256 matrix for viewing transaxial, coronal, and sagittal slices of 0.9 mm thickness. Pixel size was 0.38×0.38×0.79 mm3 and transaxial resolution obtained was 0.9 mm. For blocking experiments 100 μL of a 1 mM aqueous solution of SFITGv6 was pre-administered intraperitoneally 30 min before injection of the radiolabeled peptide. Biodistribution studies were performed after administration of 100 μL of a 20 nM ^177Lu-DOTA-SFITGv6 solution (1 MBq) as an intravenous bolus injection into the tail vein of the mice. After different time points (30 min to 6 hours) three animals, respectively, were sacrificed. Peripheral blood, heart, lung, spleen, liver, kidneys, muscle, brain, intestine, and injection site (tail, after intravenous injection only) were collected and weighted. Tissue-associated radioactivity was measured in a gamma counter (Berthold LB951G) and expressed as percentage of the injected dose per gram tissue (% ID/g).
All animal experiments were conducted in compliance with the German animal protection laws. For in vivo small animal PET imaging and organ distribution studies eight-week old Balb/c nude mice (Charles River Laboratories) were inoculated subcutaneously at the right shoulder with a total of 5×10^6 tumor cells in MatriGel (BD Bioscience). Xenografts were grown until a tumor diameter of 10-15 mm was reached.
3-dimensional (3D) PET images of whole mice were captured by the Siemens Inveon PET scanner as described in Example 1. To assess the biodistribution 100 μL of a 20 nM solution (1 MBq) of ^177Lu-DOTA-SFLAP3 and ^177Lu-DOTA-SFITGv6 were administered as an intravenous bolus injection into the tail vein of mice. For each time point (30 min to 6 hours) we sacrificed a total of three animals, and subsequently collected peripheral blood, heart, lung, spleen, liver, kidneys, muscle, brain, and intestine. Tissues were weighed and respective radioactivity was measured by a gamma counter (LB951G, Berthold Technologies). Values were expressed as percentage of the injected dose radioactivity (MBq) per gram tissue (% ID/g).

[2] = Small-animal PET imaging, HNO399 xenografts; design: species or system mice; conditions: Balb/c nude, mouse, in vivo, iv, total radioactivity; 60 min after injection; read-out: SUVmean in tumor
[3] = tested on: metastasized pancreatic cancer; assay: PET/CT and scintigraphy of pancreatic cancer patient; format: in vivo, human; conditions: 1 and 3 hours after injection
Method: PET/CT scans of tumor patients and body scintigraphy were performed as described in Example 1.

Capan-2 xenografts = assay: Small-animal PET imaging, Capan-2 xenografts; format: in vivo, mice; conditions: 25 MBq
Method: 6 to 8 week old Balb c/c nude mice (Charles River Lab.) were inoculated with 5*10^6 Capan-2 cells in 100 μl Opti-MEM medium. After 4 to 6 weeks the tumor has grown 10-15 mm in diameter. For small animal PET imaging 25 MBq of the ^68Ga-labeled peptide (2 nmol) was injected into the tail vein.

HNSCC tumor = assay: PET/CT scan of HNSCC tumor patient with SFLAP3; format: in vivo, human
Description: (§1) The emission data were corrected for randoms, scatter and decay. […] The quantitative assessment of tracer accumulation was done using a region of interest technique and using standardized uptake values (SUV).

[4] = PET/CT scan of HNSCC tumor patient with SFLAP3; format: in vivo, human; conditions: human, right cervical lesion, iv, 322 MBq, total radioactivity; read-out: SUVmax right cervical lesion
Description: as §1

[5] = Small-animal PET imaging, HNO223 xenografts; design: species or system mice; conditions: Balb/c nude, mouse, in vivo, iv, total radioactivity; 60 min after injection; read-out: SUVmean in tumor

SMILES: CC(C)C[C@@H]1NC(=O)[C@H](CC(=O)O)NC(=O)CNC(=O)[C@H](CCCNC(=N)N)NC(=O)CNC(=O)[C@H]([C@@H](C)O)NC(=O)[C@@H](NC(=O)[C@H](CCCNC(=N)N)NC(=O)CNC(=O)CN2CCN(CC(=O)O)CCN(CC(=O)O)CCN(CC(=O)O)CC2)CSSC[C@@H](C(=O)N[C@@H](Cc2ccc(O)cc2)C(=O)N2CCC[C@H]2C(=O)N[C@@H](CC(=O)O)C(N)=O)NC(=O)[C@H](CC(C)C)NC(=O)[C@H](CCCNC(=N)N)NC(=O)CNC1=O [^68Ga-DOTA-SFLAP3, metal not drawn] ({DOTA}-GRCTGRGDLGRLCYPD-NH2; disulfide 3-13; N-terminus and C-terminus assumed)
- SUV at 1 h [1]: 0.63 SUV
- SUV at 1 h [2]: 0.44 SUV
- PET/CT accumulation in tumor lesions [3]: high accumulation over 3 hours into the tumor lesions
- time p.i. at which tracer accumulation was seen in the tumor (Capan-2 xenografts): 20 min
- SUVmax Bight kidney (HNSCC tumor; 60 min): 22.43
- SUVmax Blood pool (mediast.) (HNSCC tumor; 60 min): 0.99
- SUVmax Cerebral parietal (HNSCC tumor; 60 min): 0.05
- SUVmax Colon ascendens (HNSCC tumor; 60 min): 9.2
- SUVmax Colon descendens (HNSCC tumor; 60 min): 3.75
- SUVmax Duodenum (HNSCC tumor; 60 min): 6.31
- SUVmax Hilar lymph nodes (HNSCC tumor; 60 min): 4.07
- SUVmax Ileum (HNSCC tumor; 60 min): 4.07
- SUVmax Jejunum (HNSCC tumor; 60 min): 10.46
- SUVmax Kidney (left) (HNSCC tumor; 60 min): 60.52
- SUVmax Liver (left) (HNSCC tumor; 60 min): 0.67
- SUVmax Liver (right) (HNSCC tumor; 60 min): 0.73
- SUVmax Lung (left) (HNSCC tumor; 60 min): 0.36
- SUVmax Lung (right) (HNSCC tumor; 60 min): 0.33
- SUVmax Muscle (glut.) (HNSCC tumor; 60 min): 1.94
- SUVmax Os ileum (HNSCC tumor; 60 min): 0.53
- SUVmax Pancreas head (HNSCC tumor; 60 min): 2.3
- SUVmax Plexus choroideus (HNSCC tumor; 60 min): 1.06
- SUVmax Spleen (HNSCC tumor; 60 min): 0.54
- SUVmax Stomach (HNSCC tumor; 60 min): 12.65
- SUVmax Thyroid (HNSCC tumor; 60 min): 3.27
- SUVmax Tumor (HNSCC tumor; 60 min, listed as 68Ga-DOTA labeled SFLAP3): 5.07
- SUVmax Tumor (HNSCC tumor; 60 min, listed as 68Ga-DOTA-labled SFLAP3): 5.1
- SUVmax Bight kidney (HNSCC tumor; 180 min): 26.41
- SUVmax Blood pool (mediast.) (HNSCC tumor; 180 min): 1.05
- SUVmax Cerebral parietal (HNSCC tumor; 180 min): 0.27
- SUVmax Colon ascendens (HNSCC tumor; 180 min): 19.37
- SUVmax Colon descendens (HNSCC tumor; 180 min): 2.97
- SUVmax Duodenum (HNSCC tumor; 180 min): 8.91
- SUVmax Hilar lymph nodes (HNSCC tumor; 180 min): 4.15
- SUVmax Ileum (HNSCC tumor; 180 min): 17.65
- SUVmax Jejunum (HNSCC tumor; 180 min): 9.2
- SUVmax Kidney (left) (HNSCC tumor; 180 min): 36.85
- SUVmax Liver (left) (HNSCC tumor; 180 min): 0.76
- SUVmax Liver (right) (HNSCC tumor; 180 min): 0.75
- SUVmax Lung (left) (HNSCC tumor; 180 min): 0.46
- SUVmax Lung (right) (HNSCC tumor; 180 min): 0.33
- SUVmax Muscle (glut.) (HNSCC tumor; 180 min): 1.92
- SUVmax Os ileum (HNSCC tumor; 180 min): 0.47
- SUVmax Pancreas head (HNSCC tumor; 180 min): 2.62
- SUVmax Plexus choroideus (HNSCC tumor; 180 min): 1.57
- SUVmax Spleen (HNSCC tumor; 180 min): 0.8
- SUVmax Thyroid (HNSCC tumor; 180 min): 3.24
- SUVmax Tumor (HNSCC tumor; 180 min): 4.64
- SUV [4]: 4.1 SUV
- SUV at 1 h [5]: 0.32 SUV
